Key:
[1] = DOPE:CVEP/calcein vesicles with DSPE-PEG3350-folate as targeting ligand
[2] = Acid-triggered calcein release from DOPE:vinyl ether lipid vesicles (calcein fluorescence dequenching assay); format: physicochemical
Description: DOPE and the labile PEG lipid were co-dissolved in chloroform that had been prefiltered through a 2.53 cm plug of anhydrous sodium carbonate to remove traces of acid and water from the solvent. This solution was evaporated under a gentle stream of N2 and further dried under vacuum (<200 μ, 4 h). Vesicles were formed by hydrating the lipid film in the presence of 50 mM calcein using five LN2 freeze-thaw-vortex cycles. This suspension was then extruded at 50° C. through two 100 nm track-etch polycarbonate membrane filters. Extraliposomal calcein was removed using a single pass through a 40 cm Sephadex G-50 gel column equilibrated with 150 mM NaCl. The fraction eluting at the void volume was collected and stored at 8° C. until use. Light-sensitive vesicles were prepared in the same manner, except that bacteriochlorophyll a (Bchl) was codissolved in the chloroform lipid solution. Other agents or mixtures of agents, such as therapeutic compounds or diagnostic agents, are substituted for calcein in the above protocol resulting in liposomal encapsulation of the substituted agent.
Vesicle release of the liposomes made in example 4 above, was monitored at 37° C. as a function of time using the calcein fluorescence dequenching assay. Acid-trigged release was initiated by dilution of the vesicles into an acidic buffer solution as described by Gerasimov et al. Light-triggered release was promoted by aerobic illumination (800 nm, 1 W) of a continuously stirred 1 cm quartz cuvette with a SDL 820 diode laser coupled to an optical fiber. The fiber was mounted perpendicular to the cuvette surface to produce a spot of ˜3 mm diameter. Both triggering methods were conducted either in the absence or presence of ten-fold excess of egg phosphatidylcholine (EPC) vesicles as a membrane “sink”.

| Substance | cellular calcein fluorescence pattern (cytoplasmic delivery) [1] | t50% release ([2]; 98:2 DOPE:DVEP vesicles, pH 4.5, in the absence of sink EPC) | calcein leakage ([2]; 98:2 DOPE:DVEP vesicles, pH 7.4, sink EPC present or not) | t50% release ([2]; 98:2 DOPE:lipid vesicles (identical loadings), pH 4.5, 37° C.) [min] |
| --- | --- | --- | --- | --- |
| 4-o-Cholesteryl-(3Z-buten-1-yl)-polyethylene [125] glycolate [CVEP] | punctuated fluorescence, followed by diffuse cytoplasmic fluorescence | – | – | – |
| rac-1,2-Dioleyl-3-(4′-hydroxy-1′-butenyl)-glyceryl polyethylene [125] glycolate [DVEP] | – | ≈ 3 h | lack of leakage | 23 |
